In article PMC6555819, “Comprehensive study of nuclear receptor DNA binding provides a revised framework for understanding receptor specificity”:

Key:
RARa:RXRa = RARa:RXRa (Homo sapiens, UniProt P10276;P19793 full;full); assay: no ligand; PBM; 270 nM : 90 nM RXRa; PBS pH 7.4, 2% milk, 0.02% Triton X-100, 1 mM DTT, BSA, 0.4 mg/ml salmon testes DNA; conditions: tags: His kept;His cleaved; copies: 1;1; label: surface-attached array probe
Outline: (§1)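 Ligand-free nuclear receptor dimers were applied to custom Agilent 4×180K protein-binding microarrays whose double-stranded probes carried direct-repeat seeds, single-nucleotide variants, half-site ablations and random human genomic background sequences in 34-nt variable regions. Incubation lasted 1 h. Binding z-scores were computed against the random background probes from regression-normalized fluorescence.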

FXR:RXRa = FXR:RXRa (Homo sapiens, UniProt Q96RI1;P19793 full;full); assay: as above; conditions: tags: His kept;His cleaved; copies: 1;1; label: surface-attached array probe
Chain of FXR:RXRa (Q96RI1 whole entry, chain 1 of 2): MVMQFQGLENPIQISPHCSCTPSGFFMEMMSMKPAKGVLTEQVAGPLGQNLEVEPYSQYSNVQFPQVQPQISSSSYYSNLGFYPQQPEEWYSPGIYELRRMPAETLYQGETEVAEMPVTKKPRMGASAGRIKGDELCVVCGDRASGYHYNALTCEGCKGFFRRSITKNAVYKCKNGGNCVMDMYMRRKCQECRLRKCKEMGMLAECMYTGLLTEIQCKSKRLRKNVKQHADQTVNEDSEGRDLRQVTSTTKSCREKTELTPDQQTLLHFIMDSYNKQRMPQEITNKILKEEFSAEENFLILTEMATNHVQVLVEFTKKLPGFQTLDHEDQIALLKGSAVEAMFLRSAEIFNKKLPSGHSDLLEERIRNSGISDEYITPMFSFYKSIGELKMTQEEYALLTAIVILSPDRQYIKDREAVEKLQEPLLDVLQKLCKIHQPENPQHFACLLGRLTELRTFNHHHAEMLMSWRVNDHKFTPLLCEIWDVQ
Chain of FXR:RXRa (P19793 whole entry, chain 2 of 2): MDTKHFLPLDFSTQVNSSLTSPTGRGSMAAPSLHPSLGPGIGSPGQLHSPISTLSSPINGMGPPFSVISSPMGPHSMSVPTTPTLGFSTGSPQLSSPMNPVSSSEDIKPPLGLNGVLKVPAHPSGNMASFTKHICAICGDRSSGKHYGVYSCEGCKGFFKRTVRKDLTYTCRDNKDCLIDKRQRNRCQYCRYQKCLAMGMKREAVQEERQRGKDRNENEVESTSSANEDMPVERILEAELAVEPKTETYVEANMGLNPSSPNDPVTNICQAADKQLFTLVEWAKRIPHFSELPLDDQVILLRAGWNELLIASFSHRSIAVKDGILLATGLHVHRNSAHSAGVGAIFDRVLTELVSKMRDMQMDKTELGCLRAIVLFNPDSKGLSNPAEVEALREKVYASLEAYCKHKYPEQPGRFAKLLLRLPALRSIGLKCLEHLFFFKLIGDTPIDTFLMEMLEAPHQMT
Outline: as §1

PPARa:RXRa = PPARa:RXRa (Homo sapiens, UniProt Q07869;P19793 full;full); assay: as above; conditions: tags: GST kept;His cleaved; copies: 1;1; label: surface-attached array probe
Chain of PPARa:RXRa (Q07869 whole entry, chain 1 of 2): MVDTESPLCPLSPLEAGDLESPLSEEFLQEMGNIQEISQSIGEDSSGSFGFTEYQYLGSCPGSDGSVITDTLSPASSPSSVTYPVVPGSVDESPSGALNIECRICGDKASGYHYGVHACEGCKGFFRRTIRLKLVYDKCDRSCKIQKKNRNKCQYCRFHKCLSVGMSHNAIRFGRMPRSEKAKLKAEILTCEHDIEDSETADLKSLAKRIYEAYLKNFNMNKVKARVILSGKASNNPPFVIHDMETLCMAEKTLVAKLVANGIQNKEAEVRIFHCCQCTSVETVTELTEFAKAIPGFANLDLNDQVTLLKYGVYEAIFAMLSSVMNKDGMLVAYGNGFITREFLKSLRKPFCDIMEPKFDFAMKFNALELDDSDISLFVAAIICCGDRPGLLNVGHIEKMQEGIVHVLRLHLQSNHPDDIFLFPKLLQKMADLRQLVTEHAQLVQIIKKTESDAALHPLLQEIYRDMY
Chain of PPARa:RXRa (P19793 whole entry, chain 2 of 2): as the sequence (P19793 whole entry, chain 2 of 2) above
Outline: as §1

RARb:RXRa = RARb:RXRa (Homo sapiens, UniProt P10826;P19793 full;full); assay: as above; conditions: tags: His kept;His cleaved; copies: 1;1; label: surface-attached array probe
Chain of RARb:RXRa (P10826 whole entry, chain 1 of 2): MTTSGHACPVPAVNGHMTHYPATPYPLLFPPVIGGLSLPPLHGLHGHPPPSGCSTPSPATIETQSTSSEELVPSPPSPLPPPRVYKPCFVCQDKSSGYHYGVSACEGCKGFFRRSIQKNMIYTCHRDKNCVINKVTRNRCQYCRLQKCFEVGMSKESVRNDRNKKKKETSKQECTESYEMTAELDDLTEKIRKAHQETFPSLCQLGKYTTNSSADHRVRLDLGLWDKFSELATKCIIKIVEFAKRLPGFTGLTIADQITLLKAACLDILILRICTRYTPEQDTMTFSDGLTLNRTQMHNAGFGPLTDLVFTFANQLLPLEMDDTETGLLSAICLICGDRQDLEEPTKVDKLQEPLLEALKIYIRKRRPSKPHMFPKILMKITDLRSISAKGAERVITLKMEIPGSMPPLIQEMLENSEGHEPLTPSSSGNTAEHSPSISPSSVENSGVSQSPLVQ
Chain of RARb:RXRa (P19793 whole entry, chain 2 of 2): as the sequence (P19793 whole entry, chain 2 of 2) above
Outline: as §1

RXRa = RXRa (Homo sapiens, UniProt P19793); assay: no ligand; PBM; 180 nM; PBS pH 7.4, 2% milk, 0.02% Triton X-100, 1 mM DTT, BSA, 0.4 mg/ml salmon testes DNA; conditions: tags: His cleaved; chain copies: 2; label: surface-attached array probe
Chain of RXRa (P19793 whole entry): as the sequence (P19793 whole entry, chain 2 of 2) above
RARg:RXRa = RARg:RXRa (Homo sapiens, UniProt P13631;P19793 full;full); assay: no ligand; PBM; 270 nM : 90 nM RXRa; PBS pH 7.4, 2% milk, 0.02% Triton X-100, 1 mM DTT, BSA, 0.4 mg/ml salmon testes DNA; conditions: tags: His kept;His cleaved; copies: 1;1; label: surface-attached array probe
Chain of RARg:RXRa (P13631 whole entry, chain 1 of 2): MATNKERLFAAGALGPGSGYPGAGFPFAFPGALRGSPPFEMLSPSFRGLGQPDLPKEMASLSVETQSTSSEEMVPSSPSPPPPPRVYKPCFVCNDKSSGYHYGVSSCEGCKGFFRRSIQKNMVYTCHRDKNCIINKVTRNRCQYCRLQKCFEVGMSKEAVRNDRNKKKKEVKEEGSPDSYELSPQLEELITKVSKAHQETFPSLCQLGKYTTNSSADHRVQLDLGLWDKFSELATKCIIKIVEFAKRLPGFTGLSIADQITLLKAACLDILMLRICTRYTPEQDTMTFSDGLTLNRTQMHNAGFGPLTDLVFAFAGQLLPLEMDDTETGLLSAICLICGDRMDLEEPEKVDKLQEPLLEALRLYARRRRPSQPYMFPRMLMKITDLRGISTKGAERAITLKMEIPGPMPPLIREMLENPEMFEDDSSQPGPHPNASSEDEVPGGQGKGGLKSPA
Chain of RARg:RXRa (P19793 whole entry, chain 2 of 2): as the sequence (P19793 whole entry, chain 2 of 2) above
Outline: as §1

Chain of RARa:RXRa (P10276 whole entry, chain 1 of 2): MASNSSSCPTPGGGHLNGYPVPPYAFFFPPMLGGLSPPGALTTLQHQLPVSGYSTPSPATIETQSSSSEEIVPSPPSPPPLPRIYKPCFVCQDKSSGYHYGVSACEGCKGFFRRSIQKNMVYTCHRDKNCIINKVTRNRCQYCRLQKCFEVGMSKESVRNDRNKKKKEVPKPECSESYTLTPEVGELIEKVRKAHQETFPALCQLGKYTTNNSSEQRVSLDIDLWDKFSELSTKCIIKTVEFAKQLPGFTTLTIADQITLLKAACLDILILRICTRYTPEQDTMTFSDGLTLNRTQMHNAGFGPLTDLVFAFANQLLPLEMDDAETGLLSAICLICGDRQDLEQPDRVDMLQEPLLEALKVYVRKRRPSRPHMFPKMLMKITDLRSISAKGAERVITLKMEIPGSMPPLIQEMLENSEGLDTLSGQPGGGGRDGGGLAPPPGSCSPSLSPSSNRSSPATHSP
Chain of RARa:RXRa (P19793 whole entry, chain 2 of 2): as the sequence (P19793 whole entry, chain 2 of 2) above

Binder | binding signal (RARa:RXRa) | binding signal (FXR:RXRa) | also measured
NRC3_random_hg19_308_o1 (dsDNA) DNA 1: GCATGAACCACTTGAAGGGTGTGGCCTCCATCTTGCGCGATTGACAGCGTAGAATGAAGG DNA 2: CCTTCATTCTACGCTGTCAATCGCGCAAGATGGAGGCCACACCCTTCAAGTGGTTCATGC | 0.27 PBM z-score against 500 random probes | -0.1 PBM z-score against 500 random probes | 
NRC3_random_hg19_60_o1 (dsDNA) DNA 1: GCGTGCTCACATGTCACATTCTGGTGATTCTTGCAAGCGATTGACAGCGTAGAATGAAGG DNA 2: CCTTCATTCTACGCTGTCAATCGCTTGCAAGAATCACCAGAATGTGACATGTGAGCACGC | 0.05 PBM z-score against 500 random probes | -0.25 PBM z-score against 500 random probes | 
NRC3_random_hg19_214_o1 (dsDNA) DNA 1: GCATCCGTTCCTTGGAGGGAGTCTGCAGACTGGCTGGCGATTGACAGCGTAGAATGAAGG DNA 2: CCTTCATTCTACGCTGTCAATCGCCAGCCAGTCTGCAGACTCCCTCCAAGGAACGGATGC | -2.33 PBM z-score against 500 random probes | -0.76 PBM z-score against 500 random probes | 
NRC3_random_hg19_243_o1 (dsDNA) DNA 1: GCCAAATGCTAGCAGAAGGCAAGAAACAACTAAGATGCGATTGACAGCGTAGAATGAAGG DNA 2: CCTTCATTCTACGCTGTCAATCGCATCTTAGTTGTTTCTTGCCTTCTGCTAGCATTTGGC | -0.38 PBM z-score against 500 random probes | -0.92 PBM z-score against 500 random probes | 
NRC3_wobSeed37_DR1_G4A_o1 (dsDNA) DNA 1: GCCATCCAAGGTCAAAGGTCAGTGAAGAGATGACGGGCGATTGACAGCGTAGAATGAAGG DNA 2: CCTTCATTCTACGCTGTCAATCGCCCGTCATCTCTTCACTGACCTTTGACCTTGGATGGC | 9.27 PBM z-score against 500 random probes |  | binding signal (PPARa:RXRa): 7.54 PBM z-score against 500 random probes; binding signal (RARb:RXRa): 6.38 PBM z-score against 500 random probes
NRC3_wobSeed37_DR1_T5G_o1 (dsDNA) DNA 1: GCCGGCCAAGGTCAAAGGTCAGTGAAGAGATGACGGGCGATTGACAGCGTAGAATGAAGG DNA 2: CCTTCATTCTACGCTGTCAATCGCCCGTCATCTCTTCACTGACCTTTGACCTTGGCCGGC | 9.26 PBM z-score against 500 random probes |  | binding signal (RXRa): 10.7 PBM z-score against 500 random probes
NRC3_wobSeed122_DR5_T9A_o1 (dsDNA) DNA 1: GCGCTAGTAGGTCAGTAAAAGGTCACACACCGGTCGGCGATTGACAGCGTAGAATGAAGG DNA 2: CCTTCATTCTACGCTGTCAATCGCCGACCGGTGTGTGACCTTTTACTGACCTACTAGCGC | 7.6 PBM z-score against 500 random probes |  | binding signal (RARg:RXRa): 7.87 PBM z-score against 500 random probes
NRC3_wobSeed28_DR1_T8G_o1 (dsDNA) DNA 1: GCCCTACGGGGCCAAAGGTCATTGATTCCAATGCTCGCGATTGACAGCGTAGAATGAAGG DNA 2: CCTTCATTCTACGCTGTCAATCGCGAGCATTGGAATCAATGACCTTTGGCCCCGTAGGGC | 7.56 PBM z-score against 500 random probes |  | binding signal (RXRa): 7.78 PBM z-score against 500 random probes
NRC3_wobSeed136_DR5_C23T_o1 (dsDNA) DNA 1: GCTAGCCTAGGTCATTCAGGGGTCAGTATAGAAAGCGCGATTGACAGCGTAGAATGAAGG DNA 2: CCTTCATTCTACGCTGTCAATCGCGCTTTCTATACTGACCCCTGAATGACCTAGGCTAGC | 7.49 PBM z-score against 500 random probes |  | binding signal (RARg:RXRa): 8.33 PBM z-score against 500 random probes
NRC3_wobSeed53_DR2_A17G_o1 (dsDNA) DNA 1: GCCCTTACGGGTCACGGGGTTATAGCACGACGAGCGGCGATTGACAGCGTAGAATGAAGG DNA 2: CCTTCATTCTACGCTGTCAATCGCCGCTCGTCGTGCTATAACCCCGTGACCCGTAAGGGC | 7.46 PBM z-score against 500 random probes |  | binding signal (RXRa): 8.24 PBM z-score against 500 random probes
NRC3_wobSeed34_DR1_G20C_o1 (dsDNA) DNA 1: GCATCGAAAGGTCGAAGGTCAGTATACCCACCCGAAGCGATTGACAGCGTAGAATGAAGG DNA 2: CCTTCATTCTACGCTGTCAATCGCTTCGGGTGGGTATACTGACCTTCGACCTTTCGATGC | 7.04 PBM z-score against 500 random probes |  | binding signal (RXRa): 7.85 PBM z-score against 500 random probes
NRC3_wobSeed51_DR2_G23A_o1 (dsDNA) DNA 1: GCCCTCGGAGGACAGAAGGTCAAAGCTGTCCGCTTTGCGATTGACAGCGTAGAATGAAGG DNA 2: CCTTCATTCTACGCTGTCAATCGCAAAGCGGACAGCTTTGACCTTCTGTCCTCCGAGGGC | 3.96 PBM z-score against 500 random probes | 3.12 PBM z-score against 500 random probes | 
NRC3_wobSeed134_DR5_G26A_o1 (dsDNA) DNA 1: GCGCTGCTAGGTCAACTGATGGTCAACTAAAGCTCGGCGATTGACAGCGTAGAATGAAGG DNA 2: CCTTCATTCTACGCTGTCAATCGCCGAGCTTTAGTTGACCATCAGTTGACCTAGCAGCGC | 3.74 PBM z-score against 500 random probes | 4.04 PBM z-score against 500 random probes | 
NRC3_wobSeed82_DR3_T27A_o1 (dsDNA) DNA 1: GCATCGAAAGGTCGACGAGGTGAGTAAACACCGTTTGCGATTGACAGCGTAGAATGAAGG DNA 2: CCTTCATTCTACGCTGTCAATCGCAAACGGTGTTTACTCACCTCGTCGACCTTTCGATGC | 3.55 PBM z-score against 500 random probes | 4.45 PBM z-score against 500 random probes | 
NRC3_wobSeed140_DR5_A9G_o1 (dsDNA) DNA 1: GCAGAATGGGGTTATACGTAGATCAGGGAAGAAAGTGCGATTGACAGCGTAGAATGAAGG DNA 2: CCTTCATTCTACGCTGTCAATCGCACTTTCTTCCCTGATCTACGTATAACCCCATTCTGC | 3.3 PBM z-score against 500 random probes | 4.21 PBM z-score against 500 random probes | 
NRC3_wobSeed2_DR0_G17C_o1 (dsDNA) DNA 1: GCCCTAGTTGGTCAAGCTCACACACGCTATAGGTACGCGATTGACAGCGTAGAATGAAGG DNA 2: CCTTCATTCTACGCTGTCAATCGCGTACCTATAGCGTGTGTGAGCTTGACCAACTAGGGC | 0.43 PBM z-score against 500 random probes |  | binding signal (RXRa): 0.35 PBM z-score against 500 random probes
NRC3_wobSeed27_DR1_G17C_o1 (dsDNA) DNA 1: GCACTCGGAGGACAAACGTCAGAGCTACGCCAGTGAGCGATTGACAGCGTAGAATGAAGG DNA 2: CCTTCATTCTACGCTGTCAATCGCTCACTGGCGTAGCTCTGACGTTTGTCCTCCGAGTGC | -0.3 PBM z-score against 500 random probes |  | binding signal (RARg:RXRa): 0.21 PBM z-score against 500 random probes
NRC3_random_hg19_398_o1 (dsDNA) DNA 1: GCAAGAAACAACAAACTTAGTACCTAGAAACAAGAGGCGATTGACAGCGTAGAATGAAGG DNA 2: CCTTCATTCTACGCTGTCAATCGCCTCTTGTTTCTAGGTACTAAGTTTGTTGTTTCTTGC | 0.12 PBM z-score against 500 random probes |  | binding signal (RARb:RXRa): -0.22 PBM z-score against 500 random probes
NRC3_random_hg19_362_o1 (dsDNA) DNA 1: GCGCCTTCTGCACCTCCTCAGTCCCTCTCCCTTTCCGCGATTGACAGCGTAGAATGAAGG DNA 2: CCTTCATTCTACGCTGTCAATCGCGGAAAGGGAGAGGGACTGAGGAGGTGCAGAAGGCGC | 0.1 PBM z-score against 500 random probes |  | binding signal (RARg:RXRa): -0.73 PBM z-score against 500 random probes
NRC3_random_hg19_429_o1 (dsDNA) DNA 1: GCTTAGTGAAGTGAAGGTTGCTTTCTACTCATTTGAGCGATTGACAGCGTAGAATGAAGG DNA 2: CCTTCATTCTACGCTGTCAATCGCTCAAATGAGTAGAAAGCAACCTTCACTTCACTAAGC | 0.08 PBM z-score against 500 random probes |  | binding signal (RXRa): -0.28 PBM z-score against 500 random probes
NRC3_random_hg19_349_o1 (dsDNA) DNA 1: GCAGTGTATGCTAAACACCTTCACTTACCTTCCTCAGCGATTGACAGCGTAGAATGAAGG DNA 2: CCTTCATTCTACGCTGTCAATCGCTGAGGAAGGTAAGTGAAGGTGTTTAGCATACACTGC | -0.1 PBM z-score against 500 random probes |  | binding signal (RARg:RXRa): 0.03 PBM z-score against 500 random probes
NRC3_random_hg19_254_o1 (dsDNA) DNA 1: GCGCCTCTGGAATGTAAACTCCAGCCTGGCATGTATGCGATTGACAGCGTAGAATGAAGG DNA 2: CCTTCATTCTACGCTGTCAATCGCATACATGCCAGGCTGGAGTTTACATTCCAGAGGCGC | -0.5 PBM z-score against 500 random probes |  | binding signal (RARb:RXRa): -0.34 PBM z-score against 500 random probes
NRC3_random_hg19_403_o1 (dsDNA) DNA 1: GCATCTCCTGCCTCAGCCTCCTGAATAGGTGGGACTGCGATTGACAGCGTAGAATGAAGG DNA 2: CCTTCATTCTACGCTGTCAATCGCAGTCCCACCTATTCAGGAGGCTGAGGCAGGAGATGC | -0.6 PBM z-score against 500 random probes |  | binding signal (RARb:RXRa): -1.01 PBM z-score against 500 random probes
NRC3_random_hg19_489_o1 (dsDNA) DNA 1: GCAACAAAGCCTGTATGACAGCACATCTGTGTACAGGCGATTGACAGCGTAGAATGAAGG DNA 2: CCTTCATTCTACGCTGTCAATCGCCTGTACACAGATGTGCTGTCATACAGGCTTTGTTGC | -0.79 PBM z-score against 500 random probes |  | binding signal (RARg:RXRa): -0.12 PBM z-score against 500 random probes
NRC3_random_hg19_476_o1 (dsDNA) DNA 1: GCACAGCAAAGAGGCCAGCATGGCTAGAGCAGATCAGCGATTGACAGCGTAGAATGAAGG DNA 2: CCTTCATTCTACGCTGTCAATCGCTGATCTGCTCTAGCCATGCTGGCCTCTTTGCTGTGC | -0.83 PBM z-score against 500 random probes |  | binding signal (RXRa): -0.29 PBM z-score against 500 random probes
NRC3_random_hg19_304_o1 (dsDNA) DNA 1: GCGGCTGTTAGCGCTCATCTCTGTGTGCCTTCACAGGCGATTGACAGCGTAGAATGAAGG DNA 2: CCTTCATTCTACGCTGTCAATCGCCTGTGAAGGCACACAGAGATGAGCGCTAACAGCCGC | -1 PBM z-score against 500 random probes |  | binding signal (RARb:RXRa): -1.19 PBM z-score against 500 random probes
